Results as given in paper PMC4422123, “The peroxisomal protein import machinery displays a preference for monomeric substrates” (Open Biology, 2015).
One block for each molecule: values may come before it.

Experiments:
[1] = biological target: acyl-CoA oxidase 1 (ACOX1), untagged, in vitro synthesized (mouse) (UniProt Q9R0H0); assay: sucrose gradient centrifugation; 35S-labelled protein synthesized (30 min ACOX1, 45 min UOX) and chased for 4 h with cycloheximide without PEX5; 5-30% sucrose in buffer B, 39 000 r.p.m., 29 h, 4°C
[2] = biological target: the molecule itself; assay: as above

- stoichiometry N [1]: 2
Molecule: acyl-CoA oxidase 1 (ACOX1), untagged, in vitro synthesized (from UniProt Q9R0H0 1-661) (natural protein)

B1: urate oxidase (UOX), untagged, in vitro synthesized (natural protein, mouse, UniProt P25688 1-303, looked up)
chain: MAHYHDNYGKNDEVEFVRTGYGKDMVKVLHIQRDGKYHSIKEVATSVQLTLRSKKDYLHGDNSDIIPTDTIKNTVHVLAKLRGIRNIETFAMNICEHFLSSFNHVTRAHVYVEEVPWKRFEKNGIKHVHAFIHTPTGTHFCEVEQMRNGPPVIHSGIKDLKVLKTTQSGFEGFLKDQFTTLPEVKDRCFATQVYCKWRYQRRDVDFEAIWGAVRDIVLQKFAGPYDKGEYSPSVQKTLYDIQVLSLSQLPEIEDMEISLPNIHYFNIDMSKMGLINKEEVLLPLDNPYGKITGTVKRKLPSRL
modifications: 35S-methionine labelled
notes: mouse urate oxidase, cDNA amplified with primers from the start codon to the stop codon, in pGEM4; also called mUOX; monomeric UOX; source: in vitro translated (rabbit reticulocyte lysate, TnT T7 QuickCoupled kit), not purified
- stoichiometry N [2]: 4
